Test results as given in PMC6117352, “Multidomain architecture of estrogen receptor reveals interfacial cross-talk between its DNA-binding and ligand-binding domains” (Nature Communications, 2018).

B1: human estrogen receptor alpha multidomain segment containing both DBD and LBD (residues E181–P552), hERα^CDE (domain or fragment, UniProt P03372 181-552, looked up)
chain: ETRYCAVCNDYASGYHYGVWSCEGCKAFFKRSIQGHNDYMCPATNQCTIDKNRRKSCQACRLRKCYEVGMMKGGIRKDRRGGRMLKHKRQRDDGEGRGEVGSAGDMRAANLWPSPLMIKRSKKNSLALSLTADQMVSALLDAEPPILYSEYDPTRPFSEASMMGLLTNLADRELVHMINWAKRVPGFVDLTLHDQVHLLECAWLEILMIGLVWRSMEHPGKLLFAPNLLLDRNQGKCVEGMVEIFDMLLATSSRFRMMNLQGEEFVCLKSIILLNSGVYTFLSSTLKSLEEKDHIHRVLDKITDTLIHLMAKAGLTLQQQHQRLAQLLLILSHIRHMSNKGMEHLYSMKCKNVVPLYDLLLEMLDAHRLHAP
notes: Cloned into pMCSG7 and the His-tag removed with TEV protease; In the assays it carried estradiol (E2) and ERE-DNA; also called hERα^CDE–DNA-E2 complex; protein part of hERα^complex; source: E. coli Rosetta2(DE3)pLysS, expressed in the presence of estradiol, purified (TALON resin, TEV cleavage, Superdex 200)
B2: 6-FAM ERE-DNA (dsDNA)
DNA 1: TAGGTCACAGTGACCTGCG
DNA 2: CGCAGGTCACTGTGACCTA

Experiments:
[1] = target: the molecule itself; experiment: SEC-SAXS + hydroxyl radical protein footprinting, docked models scored against both data sets; hERα^CDE eluted from Superdex 200 with E2, ERE–DNA and TIF2 peptide; 10 mM CHES pH 9.5, 50 mM NaCl, 50 mM KCl; footprinting at 2 µM protein, pH 9.5
hERαCDE Y191H = hERαCDE Y191H (Homo sapiens, UniProt P03372 181-552, Y191H); experiment: fluorescence anisotropy; E2, TIF2 coactivator peptide; 20 nM DNA; FA: 10 mM CHES pH 9.5, 50 mM KCl, 50 mM NaCl, 4 mM MgCl2, 50 mM arginine, 50 mM glutamic acid, 5 mM TCEP, 5% glycerol, 10 uM ZnCl2, 10 uM E2; 20 nM DNA, 10 min; temperature not stated; settings: protein: recombinant; tags: His-tag (pMCSG7), removed by TEV; chain copies: 2; label: 5' 6-FAM (strands described as 5'-labeled); blunt, 19 bp as printed (text says 18-bp)
hERαCDE W393A = hERαCDE W393A (Homo sapiens, UniProt P03372 181-552, W393A); experiment: as above; settings: protein: recombinant; tags: His-tag (pMCSG7), removed by TEV; chain copies: 2; label: 5' 6-FAM (strands described as 5'-labeled); blunt, 19 bp as printed (text says 18-bp)
hERαCDE WT = hERαCDE WT (Homo sapiens, UniProt P03372 181-552); experiment: fluorescence anisotropy; E2, TIF2 coactivator peptide; 20 nM DNA; apparent Kd; FA: 10 mM CHES pH 9.5, 50 mM KCl, 50 mM NaCl, 4 mM MgCl2, 50 mM arginine, 50 mM glutamic acid, 5 mM TCEP, 5% glycerol, 10 uM ZnCl2, 10 uM E2; 20 nM DNA, 10 min; temperature not stated; settings: protein: recombinant; tags: His-tag (pMCSG7), removed by TEV; chain copies: 2; label: 5' 6-FAM (strands described as 5'-labeled); blunt, 19 bp as printed (text says 18-bp)

Sequence of hERαCDE W393A (P03372 181-552 W393A): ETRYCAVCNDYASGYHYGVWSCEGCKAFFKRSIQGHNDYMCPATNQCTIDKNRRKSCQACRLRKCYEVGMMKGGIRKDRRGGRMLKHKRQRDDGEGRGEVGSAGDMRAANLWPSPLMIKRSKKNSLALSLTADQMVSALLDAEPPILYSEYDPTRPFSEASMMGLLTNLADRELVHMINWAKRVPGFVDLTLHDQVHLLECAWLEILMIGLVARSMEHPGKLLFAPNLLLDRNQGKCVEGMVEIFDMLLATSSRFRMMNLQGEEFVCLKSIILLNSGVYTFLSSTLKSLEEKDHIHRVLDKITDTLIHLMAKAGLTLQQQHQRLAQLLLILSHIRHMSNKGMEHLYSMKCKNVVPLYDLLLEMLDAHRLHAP

Binder	binding result [1]	Kd (hERαCDE Y191H) [nM]	Kd (hERαCDE W393A) [nM]	Kd (hERαCDE WT) [nM]
B1	binds			
B2		3.2	10.8	9.2
